No end group written: not given here.
What was measured:
Test in all cases: Kinase Profiling Assay
Format in all cases: biochemical
Details in all cases: peptide 100 μM
MKK7β(h) = target: T1, MKK7β(h) (Homo sapiens, UniProt O14733)
T1 construct: purchased Millipore
T1 sequence (O14733 1-419): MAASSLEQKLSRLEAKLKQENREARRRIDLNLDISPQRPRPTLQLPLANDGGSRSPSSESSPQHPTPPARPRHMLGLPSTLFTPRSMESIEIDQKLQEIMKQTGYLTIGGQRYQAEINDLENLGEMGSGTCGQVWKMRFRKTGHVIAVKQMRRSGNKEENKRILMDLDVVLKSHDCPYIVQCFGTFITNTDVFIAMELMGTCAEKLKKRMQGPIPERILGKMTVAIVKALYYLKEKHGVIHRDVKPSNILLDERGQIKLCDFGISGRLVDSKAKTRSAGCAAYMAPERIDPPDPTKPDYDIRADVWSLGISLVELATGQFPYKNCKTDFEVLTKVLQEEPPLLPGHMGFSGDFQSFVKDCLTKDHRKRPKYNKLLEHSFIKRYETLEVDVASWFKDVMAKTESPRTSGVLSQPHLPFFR
How it was run: (§1)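 Each kinase activity was measured in duplicate. Phosphorylation of a positively charged substrate with radiolabeled phosphate from ATP was captured on a negatively charged filter, counted by scintillation and expressed relative to a 100% activity control. MK2 inhibitory peptides were screened for specificity across 266 human kinases.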

AMPKα1(h) = AMPKα1(h) (Homo sapiens, UniProt Q13131)
How it was run: as §1

Met(D1246N)(h) = target: T2, Met(D1246N)(h) (Homo sapiens, UniProt P08581, D1228N)
T2 construct: purchased Millipore
How it was run: as §1

MAPKAP-K3(h) = target: T3, MAPKAP-K3(h) (Homo sapiens, UniProt Q16644)
T3 construct: purchased Millipore
How it was run: as §1

CaMKIIβ(h) = CaMKIIβ(h) (Homo sapiens, UniProt Q13554)
How it was run: as §1

PKCε(h) = target: T4, PKCε(h) (Homo sapiens, UniProt Q02156)
T4 sequence (Q02156 1-737): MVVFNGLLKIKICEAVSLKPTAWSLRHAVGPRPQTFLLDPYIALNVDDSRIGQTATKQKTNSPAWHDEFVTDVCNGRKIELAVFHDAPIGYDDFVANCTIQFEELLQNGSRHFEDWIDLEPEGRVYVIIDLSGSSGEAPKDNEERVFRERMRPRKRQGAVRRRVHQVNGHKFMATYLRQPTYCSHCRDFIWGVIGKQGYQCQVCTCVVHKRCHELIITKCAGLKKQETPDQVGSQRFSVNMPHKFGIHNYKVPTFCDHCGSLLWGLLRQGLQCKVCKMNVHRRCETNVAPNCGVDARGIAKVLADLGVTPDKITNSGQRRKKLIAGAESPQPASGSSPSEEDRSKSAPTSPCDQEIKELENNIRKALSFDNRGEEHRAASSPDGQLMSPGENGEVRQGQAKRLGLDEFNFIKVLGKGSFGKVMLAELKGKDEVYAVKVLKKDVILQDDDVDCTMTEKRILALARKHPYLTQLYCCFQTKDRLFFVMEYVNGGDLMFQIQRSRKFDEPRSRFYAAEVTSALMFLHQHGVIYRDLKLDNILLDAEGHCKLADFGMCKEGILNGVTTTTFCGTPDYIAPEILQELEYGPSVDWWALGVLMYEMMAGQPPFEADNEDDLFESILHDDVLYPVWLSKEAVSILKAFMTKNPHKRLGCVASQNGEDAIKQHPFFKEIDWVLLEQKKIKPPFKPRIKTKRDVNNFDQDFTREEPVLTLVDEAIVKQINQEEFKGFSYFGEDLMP
How it was run: as §1

PKD2(h) = target: T5, PKD2(h) (Homo sapiens, UniProt Q9BZL6)
T5 sequence (Q9BZL6 1-878): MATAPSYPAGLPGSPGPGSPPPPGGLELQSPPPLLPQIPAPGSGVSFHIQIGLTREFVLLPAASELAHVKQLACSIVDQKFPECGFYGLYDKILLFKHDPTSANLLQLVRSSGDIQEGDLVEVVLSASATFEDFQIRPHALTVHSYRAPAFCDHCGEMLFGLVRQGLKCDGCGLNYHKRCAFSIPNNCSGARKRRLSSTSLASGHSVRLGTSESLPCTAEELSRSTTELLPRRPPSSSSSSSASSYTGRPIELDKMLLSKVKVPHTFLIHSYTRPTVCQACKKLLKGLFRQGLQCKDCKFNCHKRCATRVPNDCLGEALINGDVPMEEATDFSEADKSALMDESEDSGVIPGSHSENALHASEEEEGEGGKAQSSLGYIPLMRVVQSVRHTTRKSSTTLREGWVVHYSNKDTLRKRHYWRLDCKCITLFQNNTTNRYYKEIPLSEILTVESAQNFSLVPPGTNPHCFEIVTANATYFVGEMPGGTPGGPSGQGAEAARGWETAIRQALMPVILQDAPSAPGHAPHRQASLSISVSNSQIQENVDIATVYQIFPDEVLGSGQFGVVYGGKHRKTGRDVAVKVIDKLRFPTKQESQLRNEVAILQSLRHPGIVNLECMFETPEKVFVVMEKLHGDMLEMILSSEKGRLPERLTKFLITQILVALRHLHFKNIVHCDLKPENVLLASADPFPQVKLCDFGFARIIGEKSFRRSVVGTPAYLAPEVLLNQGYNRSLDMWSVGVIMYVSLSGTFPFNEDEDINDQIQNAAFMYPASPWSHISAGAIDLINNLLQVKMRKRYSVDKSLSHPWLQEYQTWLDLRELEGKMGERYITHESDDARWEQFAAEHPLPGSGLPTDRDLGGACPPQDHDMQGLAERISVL
How it was run: as §1

CDK3/cyclinE(h) = CDK3/cyclinE(h) (Homo sapiens, UniProt Q00526)
How it was run: as §1

CaMKI(h) = CaMKI(h) (Homo sapiens, UniProt Q14012)
How it was run: as §1

Sequence of CaMKIIβ(h) (Q13554 whole entry): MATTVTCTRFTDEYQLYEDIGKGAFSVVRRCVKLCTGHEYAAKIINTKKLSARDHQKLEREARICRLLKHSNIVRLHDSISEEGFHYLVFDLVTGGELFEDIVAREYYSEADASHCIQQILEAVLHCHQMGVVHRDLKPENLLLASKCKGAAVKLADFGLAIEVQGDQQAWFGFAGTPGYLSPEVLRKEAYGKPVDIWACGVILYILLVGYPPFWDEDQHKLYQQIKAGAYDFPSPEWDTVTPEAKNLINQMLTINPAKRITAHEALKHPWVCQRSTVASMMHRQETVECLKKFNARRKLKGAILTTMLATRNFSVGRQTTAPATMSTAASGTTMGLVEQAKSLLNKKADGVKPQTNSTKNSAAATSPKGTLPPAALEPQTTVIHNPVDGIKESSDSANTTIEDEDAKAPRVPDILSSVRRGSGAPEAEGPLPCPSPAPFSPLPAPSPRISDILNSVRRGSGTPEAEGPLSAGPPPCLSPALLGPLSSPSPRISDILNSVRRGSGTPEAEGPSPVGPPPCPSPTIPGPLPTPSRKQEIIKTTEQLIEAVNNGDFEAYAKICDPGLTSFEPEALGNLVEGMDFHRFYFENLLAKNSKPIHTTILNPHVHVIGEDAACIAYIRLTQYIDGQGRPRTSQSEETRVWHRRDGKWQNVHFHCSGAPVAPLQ
Sequence of AMPKα1(h) (Q13131 whole entry): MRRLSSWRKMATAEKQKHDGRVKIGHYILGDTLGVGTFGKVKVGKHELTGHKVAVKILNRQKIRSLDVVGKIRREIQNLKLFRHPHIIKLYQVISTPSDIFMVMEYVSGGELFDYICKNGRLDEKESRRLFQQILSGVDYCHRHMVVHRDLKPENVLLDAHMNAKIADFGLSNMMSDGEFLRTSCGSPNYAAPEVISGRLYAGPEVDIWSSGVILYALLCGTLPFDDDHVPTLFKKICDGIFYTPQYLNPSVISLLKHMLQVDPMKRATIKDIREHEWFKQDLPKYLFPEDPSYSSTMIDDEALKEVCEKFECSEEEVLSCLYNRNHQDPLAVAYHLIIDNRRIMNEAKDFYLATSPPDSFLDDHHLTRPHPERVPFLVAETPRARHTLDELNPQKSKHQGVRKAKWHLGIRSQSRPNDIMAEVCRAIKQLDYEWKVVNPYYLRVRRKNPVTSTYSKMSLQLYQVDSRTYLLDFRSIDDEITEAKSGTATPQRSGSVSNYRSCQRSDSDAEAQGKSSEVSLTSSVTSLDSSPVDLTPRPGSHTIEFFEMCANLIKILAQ
Sequence of AMPKα1(h) (Q9Y478 whole entry partner): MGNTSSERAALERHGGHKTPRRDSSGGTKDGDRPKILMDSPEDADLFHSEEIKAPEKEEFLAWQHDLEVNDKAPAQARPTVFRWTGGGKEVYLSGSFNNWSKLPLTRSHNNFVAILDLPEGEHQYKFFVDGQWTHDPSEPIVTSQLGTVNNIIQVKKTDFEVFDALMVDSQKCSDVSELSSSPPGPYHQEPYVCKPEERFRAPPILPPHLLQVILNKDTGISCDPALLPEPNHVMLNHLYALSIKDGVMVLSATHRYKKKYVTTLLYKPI
Sequence of AMPKα1(h) (P54619 whole entry partner): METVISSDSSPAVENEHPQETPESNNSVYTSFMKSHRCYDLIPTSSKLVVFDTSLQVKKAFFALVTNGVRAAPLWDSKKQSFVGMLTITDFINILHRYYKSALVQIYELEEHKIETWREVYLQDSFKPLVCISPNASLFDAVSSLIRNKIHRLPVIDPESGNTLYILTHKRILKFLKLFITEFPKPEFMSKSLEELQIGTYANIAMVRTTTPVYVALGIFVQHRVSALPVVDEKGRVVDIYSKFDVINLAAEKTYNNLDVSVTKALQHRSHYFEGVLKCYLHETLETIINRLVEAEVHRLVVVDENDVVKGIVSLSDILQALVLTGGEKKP
T3 sequence (Q16644 whole entry): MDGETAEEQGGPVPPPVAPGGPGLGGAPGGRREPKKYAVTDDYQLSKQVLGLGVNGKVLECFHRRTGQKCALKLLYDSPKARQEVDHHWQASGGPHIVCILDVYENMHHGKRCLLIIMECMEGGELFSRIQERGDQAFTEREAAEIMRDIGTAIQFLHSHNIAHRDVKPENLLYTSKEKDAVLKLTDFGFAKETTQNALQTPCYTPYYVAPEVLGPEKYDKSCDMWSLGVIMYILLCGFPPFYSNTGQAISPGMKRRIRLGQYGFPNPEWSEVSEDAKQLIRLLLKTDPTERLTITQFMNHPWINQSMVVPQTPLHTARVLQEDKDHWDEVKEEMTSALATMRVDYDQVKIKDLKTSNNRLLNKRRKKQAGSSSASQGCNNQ
Sequence of CDK3/cyclinE(h) (Q00526 whole entry): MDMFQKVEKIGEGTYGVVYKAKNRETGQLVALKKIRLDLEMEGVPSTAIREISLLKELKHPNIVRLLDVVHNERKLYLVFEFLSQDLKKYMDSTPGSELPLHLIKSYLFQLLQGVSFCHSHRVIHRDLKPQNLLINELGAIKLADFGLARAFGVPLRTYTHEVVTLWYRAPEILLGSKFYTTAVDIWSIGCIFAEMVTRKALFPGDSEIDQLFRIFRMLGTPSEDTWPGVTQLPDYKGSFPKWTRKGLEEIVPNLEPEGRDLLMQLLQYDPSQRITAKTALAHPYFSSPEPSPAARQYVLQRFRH
Sequence of CDK3/cyclinE(h) (P24864 whole entry partner): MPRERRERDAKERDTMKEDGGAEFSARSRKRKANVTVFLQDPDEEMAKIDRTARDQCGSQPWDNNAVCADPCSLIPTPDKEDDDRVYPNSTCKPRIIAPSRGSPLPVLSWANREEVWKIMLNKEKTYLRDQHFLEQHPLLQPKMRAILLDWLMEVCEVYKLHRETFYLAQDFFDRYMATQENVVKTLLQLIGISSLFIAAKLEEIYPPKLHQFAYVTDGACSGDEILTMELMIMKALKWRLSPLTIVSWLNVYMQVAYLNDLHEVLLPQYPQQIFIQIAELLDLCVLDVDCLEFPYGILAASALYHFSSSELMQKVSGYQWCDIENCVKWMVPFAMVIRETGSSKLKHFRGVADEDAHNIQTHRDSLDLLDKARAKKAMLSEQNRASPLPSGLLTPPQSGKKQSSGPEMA

Row | Sequence | % activity (MKK7β(h)) [%] | % activity (AMPKα1(h)) [%] | % activity (Met(D1246N)(h)) [%] | % activity (MAPKAP-K3(h)) [%] | % activity (CaMKIIβ(h)) [%] | % activity (PKCε(h)) [%] | % activity (PKD2(h)) [%] | % activity (CDK3/cyclinE(h)) [%] | % activity (CaMKI(h)) [%]
1 | KAFAKLAARLYRKALARQLGVAA [MMI-0400] | 94 | 87 | 31 | 7 | 11 | 59 | 25 | 92 | 0
2 | FAKLAARLYRKALARQLGVAA [MMI-0300] | 100 | 71 | 82 | 3 | 2 | 79 | 33 | 94 | 1
3 | YARAAARQARAKALARQLGVAA [MMI-0100] | 137 | – | – | 27 | – | – | 84 | – | –
4 | HRRIKAWLKKIKALARQLGVAA (Mammal) [MMI-0500] | – | 35 | 90 | 9 | 3 | 23 | 10 | 8 | -1
5 | YARAAARQARAKALNRQLGVA (Mammal) [MMI-0200] | – | 108 | 149 | 39 | 53 | 98 | 78 | – | 21
